Experimental data from paper PMC4031048, “Six Homeoproteins and a linc-RNA at the Fast MYH Locus Lock Fast Myofiber Terminal Phenotype”.

T1: Six1 (Mus musculus, UniProt Q62231 1-284)
T1 sequence: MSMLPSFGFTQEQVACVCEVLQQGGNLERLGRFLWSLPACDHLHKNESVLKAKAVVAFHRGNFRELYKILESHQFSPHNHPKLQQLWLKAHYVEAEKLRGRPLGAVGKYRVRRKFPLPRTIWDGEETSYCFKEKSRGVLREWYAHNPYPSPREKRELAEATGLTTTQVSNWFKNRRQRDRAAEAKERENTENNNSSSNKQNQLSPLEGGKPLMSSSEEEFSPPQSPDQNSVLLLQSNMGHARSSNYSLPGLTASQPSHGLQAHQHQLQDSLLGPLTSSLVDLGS

B1: Enh6 (dsDNA)
DNA 1: CGTCAAGGAAACCTTATTCCATC
DNA 2: GATGGAATAAGGTTTCCTTGACG
B2: Enh3 (dsDNA)
DNA 1: TGTAAGAGAAACTGAAATAAAAT
DNA 2: ATTTTATTTCAGTTTCTCTTACA
B3: Enh2 (dsDNA)
DNA 1: TCATAAGGAAATCTAAGTCAACC
DNA 2: GGTTGACTTAGATTTCCTTATGA
B4: Enh1 (dsDNA)
DNA 1: CTCTTGGGTAACTGGAGCCCCTC
DNA 2: GAGGGGCTCCAGTTACCCAAGAG
B5: Enh4 (dsDNA)
DNA 1: GGGGTAAGAAATCTGACGACAGG
DNA 2: CCTGTCGTCAGATTTCTTACCCC

Target: T1, Six1
Experiment: competition EMSA; 10x and 100x vs labeled Myogenin MEF3; EMSA as previously described (ref 38); buffer, salt, pH and temperature not given
Conditions: protein: ivt; blunt

Row | Binder | binding result
1 | B1 | binds
2 | B2 | binds
3 | B3 | binds
4 | B4 | binds
5 | B5 | binds
